Test: label from the status in PepcDB records

Sequence	protein production
MDLNFSKEEIAFRDEVRQFFKDNVPAKTRQKLIEGRHNTKEEMVEWYRILNKKGWAVTHWPKEYGGTGWSSVQHYIFNEELQAAPAPQPLAFGVSMVGPVIYTFGSEEQKKRFLPRIANVDDWWCQGFSEPGSGSDLASLKTKAEKKGDKWIINGQKTWTTLAQHADWIFCLCRTDPAAKKQEGISFILVDMKTKGITVRPIQTIDGGHEVNEVFFDDVEVPLENLVGQENKGWDYAKFLLGNERTGIARVGMSKERIRRIKQLAAQVESGGKPVIEDPKFRDKLAAVEIELKALELTQLRVVADEGKHGKGKPNPASSVLKIKGSEIQQATTELLMEVIGPFAAPYDVHGDDDSNETMDWTAQIAPGYFNNRKVSIYGGSNEIQRNIICKAVLGL	failed
MEGLAAFIIITLMIIIVPGPDFFVVMKNSITSGKGNGAMAALGITSGHVVYSLLAVFGIIFILANMYYVFVTIKILGAIYLIYLGIRSIISARQSMNFSTSQLKAQRITYLSSYRQGFFSTILNPKALLYYISILPQFLSTGEAVTSQIAILTAIVTTVILLWFIFCVYIFQYIKLLFTNRKIKAIFDYTVGAILIGLSLNLLLSKSS	failed
MSKVRIAIIGNGMVGHRFIEELLDKAPAGQFDITVFCEEPRIAYDRVHLSSYFSHHTAEELSLVREGFYEKHGVKVLVGERAITINRQEKVIHSSAGRTVFYDKLIMATGSYPWIPPIKGAETQDCFVYRTIEDLNAIESCARRSKRGAVVGGGLLGLEAAGALKNLGVETHVIEFAPMLMAEQLDQMGGEQLRRKIESMGVKVHTSKNTKEIVQQGTEARKTMHFADGSELQVDFIVFSTGIRPRDKLATQCGLAVAQRGGIMVNDSCQTSDPDIYAIGECASWNNRVYGLVAPGYKMAQVAVDHLLGSENSFTGADLSAKLKLLGVDVGGIGDAHGRTPGARSYVYLDESKEVYKRLIVSADNKTLLGAVLVGDTSDYGNLLQLVLNAIELPENPDSLILPAHAGSGKPSIGVDKLPDSAQICSCFDVSKGDLIAAINKGCHTVAALKAETKAGTGCGGCIPLVTQVLNAELAKQGIEVNNNLCEHFAYSRQELFHLIRVEGIKTFDELLEKHGQGYGCEVCKPTVGSLLASCWNEYILKPQHTPLQDSNDNFLANIQKDGTYSVIPRSAGGEITPEGLVAVGRIAREFNLYTKITGSQRIGLFGAQKDDLPEIWRQLIEAGFETGHAYAKALRMAKTCVGSTWCRYGVGDSVGFGVELENRYKGIRTPHKMKFGVSGCTRECAEAQGKDVGIIATEKGWNLYVCGNGGMKPRHADLLAADLDRETLIKYLDRFMMFYIRTADKLTRTAPWLDNMEGGIDYLRSVIIDDKLGLNDHLEEELARLRAAFACEWTETVNNPAAQTRFKHFINSDQRDPNVQVVPERDQHRPATPYERIPVTLVEEKA	not failed
MPMSSPMMSDTDREDLDAILRTVLVSDKGYVETLSRATGLNGKALTDKAAFTLSRLSAVGGYDYENEALEVAGRYLAEARFTEAEAIYRQVLVSFPEKHGFNHPGYATRLNNLAEVLRATARYDEAESLYRQALEIDREALGLEHPDYGIDLLNLAGLLHDRGRYEAAEPLYREAMTIIGKVVGEEHYRYATAQNNLAGLLQDMLRFEEAEALCRQALEITSKTLGESHSVYATRLNNLAELLGTTERYGEAEPLYRQALEITQKTLGEEHPDFAIRLNNLAVLLKATGRYEEAEPLYRQALEITHRTLGEAHPDYATRLNNFAGLLDSTERYDEAEPLYRQALEICEKALGVEHPSTQTVRANLELFLSEKPD	failed
NMPRLRMLMSAFPKGGDLHHHLAGAIDAETMLQWAGDQNLCIDTIKLSVIPSPCDAAVNKKPAKNLERQDPILWNKLIDVFSMRNYHFDVAAGEHSGHDHFFSSFFHFAAALDNNFGRMIAYSRRDAAANNLLYIETMQNPKVVSTFARSVLQDAKGKNSPEDLWKVVKDRLPAAVAAAKAETTEAEAQSRQILQCDGRQPDPACSVTMRYMVFAVRAMPPEMVFAQLALGFALAHSDPRWVGVNIVAPEDGAVSMQDYDLHMQFFRFLRQLYPDVKITLHAGELALPLVPTAGLRDHIRKAVFVAGADRIGHGIDIGSEMNPVEILHHMAERPVPVEINLSSNDAILNIKGNQHPFALYRQYNVPVVISTDDAGVSRNDLTTEYMRAIEEQHVSYSDLKKLSRDSLEYAFLSGEGLWQKNTGESVKPVCSGIAFTAMPQGKCADFLVKNDKAALQWKLEAAFIRYEEQVREGA	failed
MEQEILALFEKILSRKVGFNDELIESDILDSILAVDLVLEVQDVYGCVIPPTEVATVLKTPADLARYIEENRG	failed
MITYPKQMRDSGFKFEFFCDQGGYYQHVMDHLISCTQRQETPVNISNIPKCKAVLVTSLTGEIIKAQGRHLDMLLIVFED	failed
MTDRIMALVDGSGFSRSVCLHAAWLAQRLELPVDLLHVLGRREAADRGDLSGALQLGARTALLEELAALDAERARLAQAQGRAILEDAQAILAAESVETTPHLRQGDLIDTVAGFERSGRALVVGKRGRAAGFASAHLGSNLERLLRASKLPVLIVPADCR	failed
MTSQVANPPVQSIRLLFSALLLVMLLSALDQTIVSTALPTIVGELGGLDKLSWVVTAYILSSTIAVPLYGKFGDLFGRKIVLQVAIGLFLVGSALCGLAQNMTQLVLMRGLQGLGGGGLMVISMAAVADVIPPANRGRYQGLFGGVFGLATVIGPLIGGFLVQHASWRWIFYINLPLGLFALLVIGAVFHSSNKRSQHQIDWLGAIYLSMALLCIILFTSEGGSVHAWNDPQLWCILAFGIVGIIGFIYEERMAAEPIIPLALFRNRSFLLCSLIGFVIGMSLFGSVTFLPLYLQVVKEATPTEAGLQLIPLMGGLLLTSIISGRIISRTGKYRLFPILGTLLGVTGMVLLTRITIHSPLWQLYLFTGVLGAGLGLVMQVLVLAVQNAMPAQMYGVATSGVTLFRSIGGSIGVALFGAVFTHVLQSNLQQLLPEGAVLPPGMNPVAVQHLPADIRLDYLDAFGAAIHAAFLMAAGIMAVAFVLSWLLKEAPLKTATH	failed
MAPPAQKGNLRKRSGKTSTAVNSAINENVRKLVRSLSEPGTSQKKLRQMEDTALKIIANQRRTWAPTTTDMEVKRNLDDLAERFRAEGMASFGESIKDLAIRYLAMDENQQQFNPNPGWQMLELLFRIADRPVQKIRLNREFMEQRRLSIINSMEEAERQAQIEEQAKLEAAKNTSETEVDWAALLSEDFLDPPEDDSSDSLSDWSEESDCDSTTTLKPDENIGVSRSLLEMARVYEQAMMAVVPTGSVNKTYMPPEQSVIRSYDFRIMKPTVLSLNNLKGSHLRRSKLLQLPPPQPPRPFTQYWQSGNTDTLFRKIHSHWWCQDVHLNALPSSAKPLDNFAVSYVQFLNHNARGLLALPVPKTITEPCLLREILFMFVRPASCCFFEFDKATRRITVRDNVSICTVTASTMQNFLLFNVVPALEDMMELRHIIDTHTLHFHGVKTTYTVEFFAYGLRDLVQPICQLLIAYEDRVNKDPAKNTLIRFTIEFREHFSQLRLLRELAEDVILDKGPAHIRSAYLLSRLYKHTLLQVPHQKLATALLFISLKRYCIIIDGWWRRAALEDHLREFIVEFCYEEDANTRSHVRKRNMGMEDDLLLVEIFNKLQSCPLYQLLLEHALESGETQDLLCSVNTLSEMLTSNNEIQLPSLHDELFTQFFAQLKVYCGADNTDYEDEPEPDKDYEDLTVCNRQGIRNHELFAIFTQPLVEQRLERQRERLKSNPVLMANILKRLERSTCLQLKSELPEALREILRRRQWLANEYAIRAYCKETQVAEKMRFLRHTMLLEKYYLFVPYYNALFVRMEKNNSWALGSVLTSKLCAVLLPHYPQLAHYLHVKLISQINSNSIKVYEALEAIELDFERPMAMHQWYILTPAHMQDYNSVWRLMLKVKWAVWKLENMQFLRRARFNPCAPLDLIGLTIRRLEIVRFWLIFLINNLHAHIMEAVSRQFELRIGECKNVRELRIMHDEHLAWLKTHCMLTDEFKAFRVALDQIFHLVYVLDMEWTTCASCMHDHDALCLDFTISDDGIDDSETQRRSLEYLALNQVAEIELTYIRCHQMLADILNTLVHQNDHGFLSALEETINSSVPH	failed
MVDVLWDEIQNLELGQDYPTLFIPNEAYVMVEDRNRLSLIARPLLPRVQNFNAVINALPRAWGLTAHVHGRILDATYVQLLFQTEIYLLSVQRREVWLFNNWFVASQRWEAAPSLNFVTTIDLWVQMRGIPILYVFEKTELEIAQELGEIISLDFHDATSTQIAYIRVRVRFGITDRLRFFQRITFESGETALIRFQYERLRRIYSCFRFTHNLNYYPYRQRFQSIDRERAVFRDSVLRSSFNSQSQMTDSSLQVPLHPPPRVPSSGDAITSGIMRVFEVGESSRGVQDGESHNNMNLGESSKRKNLVILQRDKESRQHKQQETEQRMGGILKPPKKR	not failed
MLRFKRKNFFKTINFKIALVFALLLLITLEIVGAIFVKQLESKNIQDFKQSVQIPTYIDNSLSEQLTVSSTRKANGQIKTILSNYNNTNVDEIQVVDSKGTIRGTSDVNDQSVVGQKTTDRNVKNAIYNNRTYTKSTYDTQNNGRYYVSIVPLYSSNSAGNSSQLVGVLYVRANMKSVYSTINNIMGIFVIASLAAMVLGLGIAIIIARAITRPIEEMKQQTQRIARGDYAGQVRVYSDDELGQLAKAINNLSIRVEESQESTEAERRRLDSVLSHMSDGVIATDRRGNITIINETASDFMDVTAEKAIGNSILDILKIRDDYSLRDLIENQDELMLDFSSNERDLILNAYFSLIQRESGFISGLVCVLHDVTEQQKIDNDRKQFVSNVSHELRTPLTSLRSYIEALSDGAWKDPEVAPGFLKVTQEETDRMIRMINELLSLSRMDSGTTRVDMELVNINEMFNYVLDRFDMILKKDDNPAKYYTIKREFTKRDLWVEIDTDKFTQVLDNIMNNAIKYSPDGGVVTCRLLETHNQVIISISDQGLGIPRADLGHVFDRFFRVDKARSRAQGGTGLGLAISKEVVQMLGGRIWVDSVEGKGSTFYISLPYEPYEEEDLWDDDSQA	failed
MLPLLVGTGVLVFLLLFGDSLLQDSDSYWQIETGRWILAHGTVPTVDSFSFSKAGEPWQSSSWLAQLIFALAMQAGWAGPVIVTALAVAAALAMFTAYLERYASALVTAALALAAMVLIMPHVLARPHMLALPVMVAWFIGLIDAADRKAAPPWALLLVMALWANLHGGFVFGLMLIGPLGLEALRQAEPQRRLSLALRWAAFGIAAVAACCATPYGWGTLLAATKILSLGEVLSTLGEWASSDFSKFGTFEASLLALLGIALARGLTLPWPRLLLVLGLVHMALVHVRSIEHYALLVPMIAARPWALQLGLARKSAEAKPDLAPPAWAGVVAVIAIIAATIAAAPRLHYRFDEPQVPERALAAVQAHGAKRIFNAYIFGGYLISRHVPVFIDGRAELYGEARVMDMMRATAGRDPAALDRMLTGNDIDATMLPPSAAAVRQMDERPGWRRLYADDIAVVHVRD	failed
MSNVTAEQKKEVKGRGFLPSRDGEHFAARIITVNGVINASQAKKIAEAAEKFGNGQLAFTTRLTVELPGVKFEDIEALSEFIASENLITGGTGSRVRPVVACKGTVCVHGLADTQALAAEIHEEFYKNWYDVKLPHKFKIGVGGCPNNCIKPDLNDLGIVGQRVPDYDSELCVGCKKCAVVEVCPVKAAKLTDKGKLEIDSNLCNNCGKCIESCNFDSIEEKESGYKVYIGGKWGKSVRPGTQIDRLFSKEELMTLIEKAILLFREQGNTGERFGITIDRIGADKFIEMLLSDEVLERKEEILEALLHLTGGAVCLEHHHHHH	failed
MWEAIKDRETGRIRSNSFANRFKSRRILSLQLSNRKDFVSPHRGSVNSLQVDLTEGRYLLSGAADGSAAVFDVQRATDYEASGLIAKHKCIFTVDKQHENGHKYAISSAIWYPIDTGLFITGSFDHYLKVWDTNTAQAVVDFKMPGKVYRTAMSSMAMSHTLIAAGTEDVQVRLCDIASGAFSHTLSGHRDGVMSVEWSTSSEWVLYTGGCDGAIRFWDIRRAGCFRVLDQSQTQLGFRPPILKRTAVGSKLSSVAKSSLGGQNRLKTLQSKQTGSQSVKGSSSAKASVEKSRQKRIHPGMLSTLDRATAHYGAVTGLKATNDGMYLLSAGSDSRIRLWDIESGRNTLVNFETGRIQTNKGIQLDTSDDPALVFVPCMKTVKVAFGMWSGRTTLMLRGHYESVNTCCFNSNDQELYTSGSDRQILVWSPGGTVEDEMVQDEVAEDKDNWSD	failed

From a protein production outcome set (Wang et al. 2014)
